Reference: patent US20090240036A1 (Eli Lilly, published 2009)
Residue numbers refer to the chain shown, from its start.

T1: Human IL-23 (heterodimer of p19 and p40 subunits) (human, UniProt P29460 23-328)
T1 sequence 1: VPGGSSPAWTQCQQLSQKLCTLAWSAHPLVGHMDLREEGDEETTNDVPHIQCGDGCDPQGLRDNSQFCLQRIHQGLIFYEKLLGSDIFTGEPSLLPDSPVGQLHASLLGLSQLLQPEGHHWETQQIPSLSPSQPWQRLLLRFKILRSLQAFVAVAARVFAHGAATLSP
T1 sequence 2: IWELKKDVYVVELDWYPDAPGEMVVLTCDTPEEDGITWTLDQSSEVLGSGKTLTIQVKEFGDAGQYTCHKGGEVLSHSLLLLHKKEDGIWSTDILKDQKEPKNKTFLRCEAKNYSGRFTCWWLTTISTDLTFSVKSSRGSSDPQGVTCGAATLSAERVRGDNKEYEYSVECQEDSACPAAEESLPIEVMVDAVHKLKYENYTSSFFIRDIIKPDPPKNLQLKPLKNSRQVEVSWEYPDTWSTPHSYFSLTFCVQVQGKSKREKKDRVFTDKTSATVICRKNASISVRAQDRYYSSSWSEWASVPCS

B1: MAbQF20 (antibody, human IgG1, kappa, V domains shown)
VH: QVQLVQSGAEVKKPGASVKVSCKVSGKTFWSYGINWVRQAPGKGLEWMGYIYIGTGYTEPNPKYKGRVTMTEDTSTDTAYMELSSLRSEDTAVYYCATIGGYYGNFADWGQGTTVTVSS
VL: DVVMTQSPLSLPVTLGQPASISCRSSQSLLISGGKTYLNWFQQRPGQSPRRLIYLVSKLDQGVPDRFSGSGSGTDFTLKISRVEAEDVGVYYCWQGTYFPLTFGQGTKLEIKR
notes: Humanized antibody derived from MAb3A8
B2: MAbQF37 (antibody, human IgG1, kappa, V domains shown)
VH: B1 VH with A107D, D108Q
VL: B1 VL
notes: as for B1

Assays:
[1] = target: Human IL-23 (heterodimer of p19 and p40 subunits) (human) (UniProt P29460); experiment: cell-based or functional assay
[2] = target: Human IL-23 (heterodimer of p19 and p40 subunits) (human) (UniProt P29460); experiment: BIAcore SPR, antibody captured on protein A, human IL-23 flowed, HBS-EP pH 7.4, 25 C
[3] = target: T1, Human IL-23 (heterodimer of p19 and p40 …); experiment: cell-based or functional assay
[4] = target: T1, Human IL-23 (heterodimer of p19 and p40 …); experiment: BIAcore SPR, antibody captured on protein A, human IL-23 flowed, HBS-EP pH 7.4, 25 C
Protocol: Affinities of MAb3A8 and antibodies of the present invention are determined using BIAcore measurements (Table 3). BIAcore™ is an automated biosensor system that measures molecular interactions. (Karlsson, et al. (1991) J. Immunol. Methods 145: 229-240). In these experiments antibody is captured to a surface at low density on a BIAcore™ chip. Ethyl-dimethylaminopropyl-carbodiimide (EDC) is used to couple reactive amino groups to protein A to a flow cell of a carboxy-methyl (CM5) BIAcore™ sensor chip. Protein A is diluted in sodium acetate buffer, pH 4.5, and immobilized on a flow cell of a CM5 chip using EDC to yield 1000 response units. Unreacted sites are blocked with ethanolamine. A flow rate of 60 μl/min is used. Multiple binding/elution cycles are performed by injection a 10 μl solution of 2 μg/mL of the antibodies of the present invention. followed by human IL-23 at decreasing concentrations for each cycle (e.g. 1500, 750, 375, 188, 94, 47, 23.5, 12, and 0 picomolar). Elution is performed with glycine-HCl, pH 1.5. BIAevaluation™ is used to analyze the kinetic data.

Row | Molecule | IC50 Measured in the Murine Splenocyte Assay [1] | Kd [2] | koff [2] | kon [2] | IC50 Measured in the Murine Splenocyte Assay [3] | Kd [4] | koff [4] | kon [4]
1 | MAB1290, anti-human IL-23 monoclonal antibody, murine (R&D Systems) | 2.8 nM | 21.4 nM | 0.000768 s⁻¹ | 36800 M⁻¹ s⁻¹ | – | – | – | –
2 | B1 | – | – | – | – | 0.002 nM | 0.074 nM | 0.000115 s⁻¹ | 1.55e+06 M⁻¹ s⁻¹
3 | B2 | – | – | – | – | 0.002 nM | 0.098 nM | 0.000153 s⁻¹ | 1.55e+06 M⁻¹ s⁻¹
